Measured values as given in patent publication US20070020627.
pKd: −log10 of the molar value.

Legend:
[1] = tested on: E2x (6-finger) (artificial); details: stated as Km; assay not described
[2] = tested on: SKD-E2cJ15E2x (12-finger) (artificial); assay: cell_activity; details: HeLa luciferase
[3] = tested on: E2cJ15E2x-VP64 (12-finger) (artificial); assay: cell_activity; details: HeLa luciferase
[4] = tested on: VP64-E2c (6-finger) (artificial); assay: cell_activity; details: HeLa luciferase
[5] = tested on: SKD-E2c (6-finger) (artificial); assay: cell_activity; details: HeLa luciferase
[6] = tested on: E2c (6-finger) (artificial); details: stated as Km; assay not described

ACCGGAGAAACCAGGGGA (double strand) [E2X target]
pKd [1]: 7.82

E2p luciferase reporter (erbB2 promoter)
activity (fold repression) [2]: 8 | activity (fold activation) [3]: 45 | activity (fold activation) [4]: 78 | activity (fold repression) [5]: 36

GGGGCCGGAGCCGCAGTG (double strand) [E2c target]
pKd [6]: 9.30
